Assay results: patent US20100092974A1, “METHODS FOR SCREENING FOR MODULATORS OF CCRL2” (The Board of Trustees of the Leland Stanford Junior …, priority 2008, published 2010)

What was measured:
FcRεI = target: T1, FcRεI (Mus musculus, UniProt P20489); test: IgE binding to FcRεI on peritoneal mast cells (specificity control); settings: 1000 nM chemerin
T1 construct: endogenous in cells; host or cells: mouse peritoneal mast cells
T1 sequence (P20489 24-250): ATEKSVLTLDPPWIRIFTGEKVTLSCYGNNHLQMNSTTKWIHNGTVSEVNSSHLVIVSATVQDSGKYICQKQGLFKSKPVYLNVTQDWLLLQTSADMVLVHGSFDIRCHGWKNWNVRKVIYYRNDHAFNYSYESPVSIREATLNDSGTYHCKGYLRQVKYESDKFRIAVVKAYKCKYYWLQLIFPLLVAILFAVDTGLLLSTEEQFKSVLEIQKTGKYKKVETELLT
T1 sequence (P20490 1-235 partner): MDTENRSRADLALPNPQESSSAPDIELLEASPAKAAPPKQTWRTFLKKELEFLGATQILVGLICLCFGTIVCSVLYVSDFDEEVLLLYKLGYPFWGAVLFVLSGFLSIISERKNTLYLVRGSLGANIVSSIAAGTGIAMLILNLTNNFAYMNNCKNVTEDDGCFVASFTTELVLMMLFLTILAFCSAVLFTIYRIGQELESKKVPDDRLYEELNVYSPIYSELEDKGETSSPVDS
T1 sequence (P20491 19-86 partner): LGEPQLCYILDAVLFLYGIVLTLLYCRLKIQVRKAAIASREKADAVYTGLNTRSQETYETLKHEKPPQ

mCRTH2 = target: T2, mCRTH2 (Mus musculus, UniProt Q9Z2J6); test: radioligand binding to untransfected or mCRTH2-HA-transfected cells; settings: data not shown
T2 construct: The coding regions of mCCRL2, huCCRL2, mCRTH2, and huCCR10 were amplified from genomic DNA; expressed in transfected cells
T2 sequence (Q9Z2J6 1-382): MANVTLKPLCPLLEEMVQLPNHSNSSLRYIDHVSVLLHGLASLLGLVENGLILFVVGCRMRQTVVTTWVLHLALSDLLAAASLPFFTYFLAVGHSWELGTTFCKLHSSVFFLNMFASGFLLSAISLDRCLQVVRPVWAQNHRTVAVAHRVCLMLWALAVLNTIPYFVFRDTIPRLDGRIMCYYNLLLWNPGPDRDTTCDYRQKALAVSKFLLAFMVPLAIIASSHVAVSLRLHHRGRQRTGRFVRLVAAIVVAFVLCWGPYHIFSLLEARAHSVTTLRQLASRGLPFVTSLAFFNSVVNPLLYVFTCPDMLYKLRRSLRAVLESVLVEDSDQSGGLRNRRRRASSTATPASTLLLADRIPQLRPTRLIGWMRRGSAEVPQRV

[1] = system: mouse peritoneal mast cells; test: immunofluorescence chemerin binding to peritoneal mast cells (WT or CCRL2 KO)
mCMKLR1 = target: T3, mCMKLR1 (Mus musculus, UniProt P97468); test: intracellular calcium mobilization, mCMKLR1 L1.2 transfectants; assay type: cell-based; settings: Fluo-4
T3 construct: expressed in transfected cells; host or cells: L1.2 mouse pre-B lymphoma cells
T3 sequence (P97468 1-371): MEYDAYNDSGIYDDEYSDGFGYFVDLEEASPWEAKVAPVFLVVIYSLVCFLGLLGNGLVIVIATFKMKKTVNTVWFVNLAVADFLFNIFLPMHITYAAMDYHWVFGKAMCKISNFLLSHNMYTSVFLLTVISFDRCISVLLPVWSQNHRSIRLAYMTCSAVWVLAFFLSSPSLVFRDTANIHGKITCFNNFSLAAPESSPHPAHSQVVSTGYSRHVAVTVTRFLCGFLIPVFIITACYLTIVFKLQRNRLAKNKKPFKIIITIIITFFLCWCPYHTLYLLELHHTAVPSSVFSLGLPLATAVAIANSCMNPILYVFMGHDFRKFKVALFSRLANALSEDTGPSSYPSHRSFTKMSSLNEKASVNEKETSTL
Method: (§1) Chemoattractant-stimulated Ca^2+-mobilization was performed following Alliance for Cell Signaling protocol ID PP00000210. Cells (3×10^6/mL) were loaded with 4 μM Fluo4-AM and 0.16% Pluronic acid F-127 (Molecular Probes) in modified Iscove's medium (Iscove's medium with 1% heat inactivated bovine calf serum and 2 mM L-glutamine, Invitrogen) for 30 minutes at 37° C. The samples were mixed every 10 minutes during loading, washed once, resuspended at up to 2×10^6/mL in the same buffer, and allowed to rest in the dark for 30 minutes at room temperature. Chemoattractant-stimulated change in Ca^2+-sensitive fluorescence of Fluo-4 was measured over real-time with a FACsScan flow cytometer and CellQuest software (BD Biosciences) at room temperature under constant stirring (500 rpm). Fluorescent data were acquired continuously up to 1024 seconds at 1-second intervals. The samples were analyzed for 45 seconds to establish basal state, removed from the nozzle to add the stimuli, and then returned to the nozzle. Mean channel fluorescence over time was analyzed with FlowJo (TreeStar, Ashland, Oreg., USA) software. […] 500 μl of these chemerin-loaded cells were added to mCMKLR1/L1.2 cells loaded with Fluo4-AM, and calcium mobilization was evaluated.

[2] = system: mouse peritoneal mast cells; test: intracellular calcium mobilization, freshly isolated peritoneal mast cells; assay type: cell-based; settings: 1000 nM chemerin, 100 nM ATP
Method: as §1

mCCRL2 = target: T4, mCCRL2 (Mus musculus, UniProt O35457); test: receptor internalization assay, mCCRL2-HA L1.2; assay type: cell-based; settings: 100 nM chemerin, 15 min
T4 construct: The coding regions of mCCRL2, huCCRL2, mCRTH2, and huCCR10 were amplified from genomic DNA; expressed in transfected cells
T4 sequence (O35457 1-360): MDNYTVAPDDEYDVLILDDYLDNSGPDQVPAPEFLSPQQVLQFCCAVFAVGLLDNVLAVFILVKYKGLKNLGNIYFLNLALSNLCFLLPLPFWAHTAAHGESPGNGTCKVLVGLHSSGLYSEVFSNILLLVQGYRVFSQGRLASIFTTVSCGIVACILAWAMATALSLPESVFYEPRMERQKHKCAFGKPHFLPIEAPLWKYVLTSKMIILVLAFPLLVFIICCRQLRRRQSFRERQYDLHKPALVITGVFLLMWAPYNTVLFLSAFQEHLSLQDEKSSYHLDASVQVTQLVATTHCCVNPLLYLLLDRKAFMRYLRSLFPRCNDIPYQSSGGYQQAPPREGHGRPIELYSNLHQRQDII
Method: The cells were then washed with 200 μl PBS and stained with mouse anti-HA (Covance, Inc) or mIgG1 isotype control, followed by staining with secondary anti-mouse IgG1 PE, fixed, and analyzed by flow cytometry.

“chemerin: protein ligand for signaling receptor CMKLR1; serum form human chemerin expressed in baculovirus-infected insect cells, His8-tag removed” was tested, and the “binding of IgE to FcRεI” value (FcRεI) was “unaffected”, the radiolabeled chemerin binding (mCRTH2) was “no binding was detected” and the “binding to freshly isolated peritoneal mast cells” value ([1]; WT mice) was “bound”. For the same substance, the “preference for binding of the pro-form vs. the active serum form” value ([1]; WT peritoneal mast cells) was “no obvious preference”, the “binding to peritoneal mast cells” value ([1]; mCCRL2 KO mice) was “did not bind” and the intracellular calcium mobilization (mCMKLR1) was “robust calcium flux”. For the same substance, the intracellular calcium mobilization [2] was “did not trigger” and the ligand-induced receptor internalization (mCCRL2) was “failed to internalize”.
